{"source": "patent US20230390363A1", "about": "“Compounds, Compositions and Methods of Use to Treat Spinal Fusions” (PURDUE RESEARCH FOUNDATION, priority 2020, published 2023)", "molecules": {"B1": {"name": "H-AVSEHQLLHDKGKSIQDLRRRELLEKLLxKLHTAEIRATSEVSPNSeeeeeeeeeeeeeeeeeeee (peptide)", "chain": "H-AVSEHQLLHDKGKSIQDLRRRELLEKLL[Aib]KLHTAEIRATSEVSPNS[dE][dE][dE][dE][dE][dE][dE][dE][dE][dE][dE][dE][dE][dE][dE][dE][dE][dE][dE][dE]", "notes": "PTHrP fragment conjugated at its C-terminus to a linear peptide of 20 D-glutamic acid residues; x=Aib, e=D-glutamic acid"}}, "test_system": "posterolateral spinal fusion of L4-L5", "assay": "Posterolateral spinal fusion of L4-L5 in rats: micro-CT and manual palpitation after treatment", "format": "in vivo, rat", "conditions": "for spinal fusion (micro-CT, manual palpitation): plain collagen matrix, rhBMP-2 10 μg soaked in matrix", "protocol": "FIG. 6, panels A-C show three-dimensional reconstructions of micro-CT scans of a posterolateral spinal fusion of L4-L5 in a rat treated with a plain collagen matrix and a compound of SEQ ID NO: 2 for eight weeks. In some embodiments, SEQ ID NO: 2 was dosed (e.g., in rodents) at 33 nmol/kg twice a week. […] In some embodiments, the collagen matrix was applied during surgery. […] In some embodiments, phosphate-buffered saline was dosed at a 1× concentration twice a week in the same volume as SEQ ID NO: 2. […] Scores were assigned 0-5 on osteointegration, density, and bridging of both bilateral spinal fusions in microCT scans of the rats as determined by an individual who was blinded to the treatment and reviewed random samples. The total score is the sum of all five scores combined. […] The density of the scan was assigned based on a standard curve generated by a phantom hydroxyapatite standard set. A bilateral posterolateral lumbar spinal fusion was performed under aseptic conditions using isoflurane as an anesthetic. The skin surrounding the L2-L6 region on the back was shaved and disinfected using a Betadine solution followed by an alcohol pad. A 3-cm incision extending from the L3 to L6 vertebrae was made in the skin in this prepared area. The muscle on the vertebral body between the spinous process and the transverses process was bluntly dissected away from the vertebral body to expose the transverses processes. Using a low-speed burr, the L4 and L5 transverse processes cortical bone was removed in addition to the facia joint between the two vertebrae. The burr removed the surface layer of the bone. This process is known as decortication and was done to allow for direct regeneration of bone tissue. Following decortication, a drug-soaked collagen sponge was placed on each side of the vertebrae. A 5×7.5-mm collagen sponge was soaked to saturation in the drugs for 10 minutes. The collagen sponge (RCM6 membranes from ACE surgical supplies) served as a scaffold to aid in the fusion of the vertebrae. Mineralized collagen scaffolds (supplied by Houston Methodist, Houston, TX) and collagen scaffolds wrapped around anorganic bone granules (InterOss bone granules; SigmaGraft Inc. Biomaterials, Fullerton, CA) were also separately used. The inter-muscle was closed with resorbable sutures. The exterior wound was then sutured closed using a nylon suture. Subcutaneous buprenorphine (0.05-0.1 mg/kg) was then administered directly after the operation and was repeated every 12 hours for the next 3 days post-surgery. Fracture healing was assessed using micro-CT (Scanco Medical Ag or PerkinElmer). The anesthetized animal was scanned for two minutes with the PerkinElmer Quantum FX micro-CT at high resolution with a voxel size of 10 μM at 90 kV and 88 uA and an Al 0.5 mm+Cu 0.06 mm filter. The scanning detector rate was 117 fps. The images were analyzed in ImageJ using the BoneJ package. Morphometric parameters were quantified in an ROI that included just the fracture callus. Trabecular thickness (Tb.Th.), trabecular spacing (Tb. Sp.), total volume (TV), and volume of calcified callus (BV) were calculated. Statistical analysis was performed using a one-way analysis of variance (ANOVA) and a Dunnett's post-hoc analysis with significance reported at the P value of 0.05. All animal experiments were performed in accordance with protocols approved by Purdue University's Institutional Animal Care and Use Committee (IACUC). Rats were scanned in AMI after being anesthetized with isoflurane.", "note": "Non-standard residues stand in square brackets, D forms with d. Aib = CC(C)(N)C(=O)O"}
{"molecule": "B1", "values": [{"measurement": "change of bone graft granules on micro-CT", "setting": "bone graft matrix, eight weeks", "value": "the granules resorb"}, {"measurement": "spinal fusion (manual palpitation)", "setting": "bone graft matrix, eight weeks, SEQ ID NO: 2 33 nmol/kg twice a week, rhBMP-2 10 μg", "value": "no fusion"}, {"measurement": "spinal fusion (micro-CT)", "setting": "mineralized collagen scaffold, eight weeks of treatment", "value": "none of the treatments had fused"}, {"measurement": "mineralization of the scaffolds (micro-CT)", "setting": "mineralized collagen scaffold, five weeks of treatment, preliminary results", "value": "increased the mineralization of the scaffolds more than BMP2 or saline"}, {"measurement": "spinal fusion (micro-CT, manual palpitation)", "setting": "eight weeks, SEQ ID NO: 2 33 nmol/kg twice a week", "value": "Fusion was confirmed"}, {"measurement": "spinal fusion (micro-CT, manual palpitation)", "setting": "eight weeks, SEQ ID NO: 2 33 nmol/kg twice a week, listed as SEQ ID NO.: 2", "value": "fused"}]}
